B1: GLTSCR2 (parent)
chain: LARRRRRRQARREAEADKPRRLGR
B2: SETD8 (parent)
chain: FVVEYHGDLIEITDAKKREALYAQ

Variants of: B1
Experiment: protein stability index of a GFP-peptide fusion (GPS, HEK-293T) (PSI 1-6); higher = more stable
Conditions: c terminus: a fixed tail appended
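Note: lentivirally expressed fusions sorted by FACS into six bins by GFP to DsRed ratio, PSI derived from sequencing read proportions per bin multiplied by bin number.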

Variant | protein stability index
Q9P | 4.85
Q9S | 4.57
Q9K | 4.33
Q9T | 5.12
Q9W | 3.71
Q9C | 4.4
Q9F | 4.27
Q9V | 4.22
Q9I | 4.75
Q9R | 4.95
Q9A | 4.17
Q9M | 3.79
Q9H | 4.73
Q9L | 4.66
Q9D | 4.44
Q9Y | 4.33
Q9G | 4.46
Q9N | 4.47
Q9E | 4.38
L1C | 5.39
L1I | 4.9
L1A | 5.29
L1V | 4.98
L1S | 5.66
L1G | 5.13

Variant | protein stability index
L1K | 4.56
L1N | 4.89
L1H | 5.28
L1E | 5.22
L1W | 4.58
L1D | 5.28
L1Y | 4.28
L1M | 4.75
L1Q | 4.51
L1R | 5.14
L1T | 5.33
L1P | 5.18
L1F | 4.4
A2I | 4.62
A2E | 4.71
A2N | 4.9
A2D | 4.41
A2K | 4.42
A2P | 4.84
A2M | 4.19
A2R | 5.33
A2L | 3.84
A2H | 4.76
A2C | 4.49
A2F | 3.4

Variant | protein stability index
A2S | 4.83
A2G | 4.78
A2V | 3.51
A2Y | 4.32
A2T | 4.28
A2Q | 5.01
A2W | 3.61
R8V | 4.18
R8I | 4.3
R8H | 4.75
R8T | 4.21
R8G | 4.25
R8M | 4.98
R8S | 5.01
R8Q | 4.23
R8K | 4.3
R8Y | 4.15
R8A | 4.98
R8P | 4.44
R8D | 4.83
R8N | 4.48
R8C | 3.8
R8L | 3.48
R8W | 4.48
R8E | 4.83

Variant | protein stability index
R8F | 4.64
R6I | 3.98
R6D | 4.96
R6P | 4.57
R6S | 4.86
R6C | 4.5
R6W | 4.74
R6M | 4.27
R6A | 5.21
R6Q | 5.03
R6Y | 4.13
R6G | 4.55
R6K | 4.79
R6V | 3.6
R6T | 4.69
R6H | 4.28
R6N | 5.07
R6E | 4.03
R6F | 3.93
R6L | 4.6
R5P | 5.1
R5T | 4.15
R5D | 4.52
R5Q | 4.33
R5E | 5.13

Variant | protein stability index
R5L | 3.81
R5S | 4.42
R5M | 4.36
R5N | 5.32
R5H | 4.18
R5W | 4.12
R5Y | 4.45
R5A | 4.69
R5G | 4.36
R5C | 4.21
R5V | 4.54
R5I | 3.79
R5K | 4.54
R5F | 4.76
R4V | 3.97
R4W | 3.11
R4Y | 4.16
R4G | 4.3
R4K | 3.13
R4S | 4.17
R4E | 5.25
R4I | 4.46
R4P | 4.92
R4L | 4.59
R4Q | 4.18

Variant | protein stability index
R4A | 4.39
R4T | 4.67
R4M | 4.57
R4D | 4.64
R4N | 4.63
R4C | 4.34
R4H | 4.35
R4F | 3.75
R7Q | 4.19
R7Y | 4.64
R7F | 4.28
R7D | 4.88
R7E | 4.93
R7H | 4.73
R7T | 4.76
R7A | 4.18
R7I | 4.41
R7V | 4.6
R7W | 4.63
R7S | 4.66
R7N | 4.83
R7C | 4.83
R7G | 4.71
R7K | 5.11
R7L | 4.76

Variant | protein stability index
R7M | 5.22
A10M | 5.21
A10E | 4.55
A10P | 5.19
A10F | 4.47
A10Q | 4.95
A10D | 3.92
A10W | 4.73
A10C | 5.01
A10K | 4.02
A10T | 4.21
A10V | 4.57
A10H | 5.1
A10G | 4.25
A10S | 4.66
A10L | 4.38
A10Y | 4.9
A10N | 4.6
A10R | 4.95
A10I | 4.55
R3I | 4.36
R3L | 4.3
R3K | 5.03
R3C | 4.74
R3T | 4.84

Variant | protein stability index
R3G | 5.02
R3Y | 3.84
R3S | 4.91
R3H | 4.3
R3N | 4.69
R3V | 4.35
R3P | 5.54
R3M | 4.41
R3Q | 4.99
R3W | 4.4
R3A | 5.01
R3E | 5.08
R3F | 4.34
R3D | 4.56
R12C | 4.31
R12A | 4.71
R12L | 3.76
R12G | 4.45
R12E | 4.29
R12H | 4.74
R12M | 4.87
R12F | 4.17
R12D | 4.73
R12N | 4.11
R12K | 4.55

Variant | protein stability index
R12I | 4.72
R11L | 5.4
R11S | 4.74
R11Y | 4.95
R11P | 4.62
R11K | 4.52
R11W | 4.53
R11N | 3.94
R11H | 4.74
R11G | 3.7
R11V | 4.91
R11Q | 4.26
R11E | 4.87
R11C | 4.64
R11A | 4.53
R11I | 4.8
R11F | 4.09
R11T | 5.06
R11M | 4.47

Variants of: B2
Experiment: as above
Conditions: c terminus: a fixed tail appended

Variant | protein stability index
H6M | 2.04
H6N | 2.2
H6K | 1.74
H6T | 1.76
H6E | 2.88
H6S | 2.31
H6D | 3.13
F1C | 3.3
F1A | 4.23
F1K | 3.65
F1Y | 2.62
F1R | 3.74
F1S | 4.43
I10A | 2.08
I10R | 1.82
I10L | 2.17
I10Y | 1.61
I10W | 1.21
I10M | 1.67
A23V | 1.65
A23R | 2.3
A23E | 1.84
A23Q | 1.85

Variant | protein stability index
A23I | 1.6
A23D | 1.79
R18F | 1.75
R18P | 1.56
R18N | 2.31
R18Q | 1.46
E19T | 2.42
E19M | 2.3
E19Y | 1.81
E19A | 2.41
E19H | 1.64
E19F | 2.97
E19C | 2.87
G7K | 1.66
G7H | 2.08
G7R | 2.76
G7D | 2.33
T13K | 2.79
T13Y | 1.78
T13D | 1.97
T13C | 2.42
T13R | 2.07
T13I | 2.24

Variant | protein stability index
T13V | 3.05
K16C | 1
K16T | 1.28
K16W | 3.04
K16P | 1.5
K16N | 1.68
K16S | 2.59
L9T | 2.06
L9Y | 1.68
L9V | 2.47
A20S | 2.3
A20Q | 1.78
A20N | 1.7
A20E | 2.67
A20G | 1.75
A20P | 1.08
I12M | 1.72
I12A | 1.98
I12L | 2.55
V3H | 2.77
V3I | 2.83
V3C | 2.24
V2I | 1.83

Variant | protein stability index
V2Y | 1.66
V2G | 3.95
V2Q | 3.12
V2H | 3.65
V2N | 3.64
Y22W | 1.56
Y22E | 2.6
Y22H | 1.84
Y22C | 2.13
Y22R | 1.99
Y22D | 2.21
D8N | 1.7
D8L | 2.85
D8E | 2.15
D8Y | 1.84
L21N | 1.81
L21D | 2.52
L21P | 3.09
L21H | 2.79
L21K | 2.38
D14W | 1.31
D14G | 3.5
D14A | 2.08

Variant | protein stability index
E4M | 1.67
E4S | 1.76
E4C | 1.82
E4P | 1.84
K17Q | 1.85
K17R | 1.33
K17E | 2.14
Y5M | 2.11
Y5T | 2.32
Y5S | 2.41
Y5C | 2.05
Q24W | 1.63
Q24T | 2.09
Q24P | 2.05
Q24E | 1.86
Q24M | 1.75
Q24R | 2.89
Q24N | 1.71
A15K | 2.33
E11R | 1.37
E11Y | 2.56
E11V | 1.96
E11Q | 2.51

— the supplement of paper PMC10567573
